# Experimental data taken from paper PMC4095729.
# Molecular target: biotinylated DAE10 peptide (Aβ1-10 conjugated to biotin at the carboxy-terminus)
# Assay: SPR; BIAcore; biotinylated DAE10 peptide (Aβ1-10) immobilised on streptavidin coated chips at low density (4 to 7 RU); whole antibodies injected in triplicate at 100 nM, 30 μl/minute; apparent rate constants, bivalent model, KD corrected for active concentration of antibody
Kd [nM],koff [s⁻¹],kon [M⁻¹ s⁻¹],Substance
1.2,0.000412,361000,"Murine 3D6 (whole antibody, IgG2b)"
1.8,0.000589,343000,Recombinant chimeric 3D6 (IgG1) (antibody)
